From patent EP0256654B1

How the values were obtained:
[1] = target: partially purified 17-1A antigen (isolated from SW116 cells) (human) (UniProt P16422); assay: competition with 125I murine 17-1A on plates coated with partially purified 17-1A antigen; 50% binding value
[2] = target: partially purified 17-1A antigen (isolated from SW116 cells) (human) (UniProt P16422); assay: cold murine 17-1A competing with 125I murine 17-1A on plates coated with partially purified 17-1A antigen; 50% binding value

| Substance | IC50 [1] [µg/mL] | IC50 [2] [µg/mL] |
| --- | --- | --- |
| G1K 17-1A Chimeric IgG (from UniProt P01857 1-330) (antibody) | 0.3 |  |
| murine monoclonal antibody 17-1A |  | 0.16 |
